The record followed here is patent US20190185537A1 (AstraZeneca / MedImmune, published 2019).

Numbered stars: 1 amine (or outer) side, 2 acyl side, 3 side chain; on linkers, the order of the positions; unused ones are H or OH. Side chains are listed from the residue outwards. Ends that are not written are not given here. * marks the point of attachment. γGlu = O=C(O)[C@H](CCC(=O)[*:2])N[*:1]; Palmitoyl = CCCCCCCCCCCCCCCC(=O)*

T1: human glucose-dependent insulinotropic peptide (gastric inhibitory polypeptide) receptor (human) (UniProt P48546)
T1 sequence (looked up): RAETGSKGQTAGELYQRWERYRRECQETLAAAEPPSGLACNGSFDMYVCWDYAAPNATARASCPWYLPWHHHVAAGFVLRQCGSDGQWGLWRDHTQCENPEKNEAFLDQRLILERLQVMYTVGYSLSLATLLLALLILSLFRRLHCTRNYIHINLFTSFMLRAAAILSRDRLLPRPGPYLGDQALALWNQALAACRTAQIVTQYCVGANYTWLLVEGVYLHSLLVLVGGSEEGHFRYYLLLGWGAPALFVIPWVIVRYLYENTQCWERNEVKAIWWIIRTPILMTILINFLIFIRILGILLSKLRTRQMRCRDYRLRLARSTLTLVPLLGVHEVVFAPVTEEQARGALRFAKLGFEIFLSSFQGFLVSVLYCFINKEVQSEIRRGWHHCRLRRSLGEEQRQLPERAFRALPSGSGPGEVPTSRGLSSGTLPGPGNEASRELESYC

B1: g335 (peptide)
peptide: HSQGTFTSDYSKYLDSK([γGlu-Palmitoyl])RAQDFVQWLVAGG-NH2
modifications: N-terminus assumed
SMILES: CCCCCCCCCCCCCCCC(=O)N[C@@H](CCC(=O)NCCCC[C@H](NC(=O)[C@H](CO)NC(=O)[C@H](CC(=O)O)NC(=O)[C@H](CC(C)C)NC(=O)[C@H](Cc1ccc(O)cc1)NC(=O)[C@H](CCCCN)NC(=O)[C@H](CO)NC(=O)[C@H](Cc1ccc(O)cc1)NC(=O)[C@H](CC(=O)O)NC(=O)[C@H](CO)NC(=O)[C@@H](NC(=O)[C@H](Cc1ccccc1)NC(=O)[C@@H](NC(=O)CNC(=O)[C@H](CCC(N)=O)NC(=O)[C@H](CO)NC(=O)[C@@H](N)Cc1c[nH]cn1)[C@@H](C)O)[C@@H](C)O)C(=O)N[C@@H](CCCNC(=N)N)C(=O)N[C@@H](C)C(=O)N[C@@H](CCC(N)=O)C(=O)N[C@@H](CC(=O)O)C(=O)N[C@@H](Cc1ccccc1)C(=O)N[C@H](C(=O)N[C@@H](CCC(N)=O)C(=O)N[C@@H](Cc1c[nH]c2ccccc12)C(=O)N[C@@H](CC(C)C)C(=O)N[C@H](C(=O)N[C@@H](C)C(=O)NCC(=O)NCC(N)=O)C(C)C)C(C)C)C(=O)O
B2: g336 (peptide)
peptide: HSQGTFTSDYSKYLDSK([γGlu-γGlu-Palmitoyl])RAQDFVQWLVAGG-NH2
modifications: N-terminus assumed
SMILES: CCCCCCCCCCCCCCCC(=O)N[C@@H](CCC(=O)N[C@@H](CCC(=O)NCCCC[C@H](NC(=O)[C@H](CO)NC(=O)[C@H](CC(=O)O)NC(=O)[C@H](CC(C)C)NC(=O)[C@H](Cc1ccc(O)cc1)NC(=O)[C@H](CCCCN)NC(=O)[C@H](CO)NC(=O)[C@H](Cc1ccc(O)cc1)NC(=O)[C@H](CC(=O)O)NC(=O)[C@H](CO)NC(=O)[C@@H](NC(=O)[C@H](Cc1ccccc1)NC(=O)[C@@H](NC(=O)CNC(=O)[C@H](CCC(N)=O)NC(=O)[C@H](CO)NC(=O)[C@@H](N)Cc1c[nH]cn1)[C@@H](C)O)[C@@H](C)O)C(=O)N[C@@H](CCCNC(=N)N)C(=O)N[C@@H](C)C(=O)N[C@@H](CCC(N)=O)C(=O)N[C@@H](CC(=O)O)C(=O)N[C@@H](Cc1ccccc1)C(=O)N[C@H](C(=O)N[C@@H](CCC(N)=O)C(=O)N[C@@H](Cc1c[nH]c2ccccc12)C(=O)N[C@@H](CC(C)C)C(=O)N[C@H](C(=O)N[C@@H](C)C(=O)NCC(=O)NCC(N)=O)C(C)C)C(C)C)C(=O)O)C(=O)O
B3: g678 (peptide)
peptide: HGQGTFTSDYSKYLDSK([γGlu-Palmitoyl])RAEDFVQWLVAGG-NH2
modifications: N-terminus assumed
SMILES: CCCCCCCCCCCCCCCC(=O)N[C@@H](CCC(=O)NCCCC[C@H](NC(=O)[C@H](CO)NC(=O)[C@H](CC(=O)O)NC(=O)[C@H](CC(C)C)NC(=O)[C@H](Cc1ccc(O)cc1)NC(=O)[C@H](CCCCN)NC(=O)[C@H](CO)NC(=O)[C@H](Cc1ccc(O)cc1)NC(=O)[C@H](CC(=O)O)NC(=O)[C@H](CO)NC(=O)[C@@H](NC(=O)[C@H](Cc1ccccc1)NC(=O)[C@@H](NC(=O)CNC(=O)[C@H](CCC(N)=O)NC(=O)CNC(=O)[C@@H](N)Cc1c[nH]cn1)[C@@H](C)O)[C@@H](C)O)C(=O)N[C@@H](CCCNC(=N)N)C(=O)N[C@@H](C)C(=O)N[C@@H](CCC(=O)O)C(=O)N[C@@H](CC(=O)O)C(=O)N[C@@H](Cc1ccccc1)C(=O)N[C@H](C(=O)N[C@@H](CCC(N)=O)C(=O)N[C@@H](Cc1c[nH]c2ccccc12)C(=O)N[C@@H](CC(C)C)C(=O)N[C@H](C(=O)N[C@@H](C)C(=O)NCC(=O)NCC(N)=O)C(C)C)C(C)C)C(=O)O
B4: g679 (peptide)
peptide: HGQGTFTSDYSKYLDSK([γGlu-Palmitoyl])RAQDFVEWLVAGG-NH2
modifications: N-terminus assumed
SMILES: CCCCCCCCCCCCCCCC(=O)N[C@@H](CCC(=O)NCCCC[C@H](NC(=O)[C@H](CO)NC(=O)[C@H](CC(=O)O)NC(=O)[C@H](CC(C)C)NC(=O)[C@H](Cc1ccc(O)cc1)NC(=O)[C@H](CCCCN)NC(=O)[C@H](CO)NC(=O)[C@H](Cc1ccc(O)cc1)NC(=O)[C@H](CC(=O)O)NC(=O)[C@H](CO)NC(=O)[C@@H](NC(=O)[C@H](Cc1ccccc1)NC(=O)[C@@H](NC(=O)CNC(=O)[C@H](CCC(N)=O)NC(=O)CNC(=O)[C@@H](N)Cc1c[nH]cn1)[C@@H](C)O)[C@@H](C)O)C(=O)N[C@@H](CCCNC(=N)N)C(=O)N[C@@H](C)C(=O)N[C@@H](CCC(N)=O)C(=O)N[C@@H](CC(=O)O)C(=O)N[C@@H](Cc1ccccc1)C(=O)N[C@H](C(=O)N[C@@H](CCC(=O)O)C(=O)N[C@@H](Cc1c[nH]c2ccccc12)C(=O)N[C@@H](CC(C)C)C(=O)N[C@H](C(=O)N[C@@H](C)C(=O)NCC(=O)NCC(N)=O)C(C)C)C(C)C)C(=O)O
B5: g381 (peptide)
peptide: HSEGTFTSDYSKYLDSK([γGlu-Palmitoyl])RAQDFVQWLVAGG-NH2
modifications: N-terminus assumed
SMILES: CCCCCCCCCCCCCCCC(=O)N[C@@H](CCC(=O)NCCCC[C@H](NC(=O)[C@H](CO)NC(=O)[C@H](CC(=O)O)NC(=O)[C@H](CC(C)C)NC(=O)[C@H](Cc1ccc(O)cc1)NC(=O)[C@H](CCCCN)NC(=O)[C@H](CO)NC(=O)[C@H](Cc1ccc(O)cc1)NC(=O)[C@H](CC(=O)O)NC(=O)[C@H](CO)NC(=O)[C@@H](NC(=O)[C@H](Cc1ccccc1)NC(=O)[C@@H](NC(=O)CNC(=O)[C@H](CCC(=O)O)NC(=O)[C@H](CO)NC(=O)[C@@H](N)Cc1c[nH]cn1)[C@@H](C)O)[C@@H](C)O)C(=O)N[C@@H](CCCNC(=N)N)C(=O)N[C@@H](C)C(=O)N[C@@H](CCC(N)=O)C(=O)N[C@@H](CC(=O)O)C(=O)N[C@@H](Cc1ccccc1)C(=O)N[C@H](C(=O)N[C@@H](CCC(N)=O)C(=O)N[C@@H](Cc1c[nH]c2ccccc12)C(=O)N[C@@H](CC(C)C)C(=O)N[C@H](C(=O)N[C@@H](C)C(=O)NCC(=O)NCC(N)=O)C(C)C)C(C)C)C(=O)O
B6: g670 (peptide)
peptide: HSQGTFTSDYSKYK([γGlu-Palmitoyl])DSRSAQDFVQWLVAGG-NH2
modifications: N-terminus assumed
SMILES: CCCCCCCCCCCCCCCC(=O)N[C@@H](CCC(=O)NCCCC[C@H](NC(=O)[C@H](Cc1ccc(O)cc1)NC(=O)[C@H](CCCCN)NC(=O)[C@H](CO)NC(=O)[C@H](Cc1ccc(O)cc1)NC(=O)[C@H](CC(=O)O)NC(=O)[C@H](CO)NC(=O)[C@@H](NC(=O)[C@H](Cc1ccccc1)NC(=O)[C@@H](NC(=O)CNC(=O)[C@H](CCC(N)=O)NC(=O)[C@H](CO)NC(=O)[C@@H](N)Cc1c[nH]cn1)[C@@H](C)O)[C@@H](C)O)C(=O)N[C@@H](CC(=O)O)C(=O)N[C@@H](CO)C(=O)N[C@@H](CCCNC(=N)N)C(=O)N[C@@H](CO)C(=O)N[C@@H](C)C(=O)N[C@@H](CCC(N)=O)C(=O)N[C@@H](CC(=O)O)C(=O)N[C@@H](Cc1ccccc1)C(=O)N[C@H](C(=O)N[C@@H](CCC(N)=O)C(=O)N[C@@H](Cc1c[nH]c2ccccc12)C(=O)N[C@@H](CC(C)C)C(=O)N[C@H](C(=O)N[C@@H](C)C(=O)NCC(=O)NCC(N)=O)C(C)C)C(C)C)C(=O)O
B7: g702 (peptide)
peptide: HSQGTFTSDYSK([γGlu-Palmitoyl])YLDSERAQDFVQWLVAGG-NH2
modifications: N-terminus assumed
SMILES: CCCCCCCCCCCCCCCC(=O)N[C@@H](CCC(=O)NCCCC[C@H](NC(=O)[C@H](CO)NC(=O)[C@H](Cc1ccc(O)cc1)NC(=O)[C@H](CC(=O)O)NC(=O)[C@H](CO)NC(=O)[C@@H](NC(=O)[C@H](Cc1ccccc1)NC(=O)[C@@H](NC(=O)CNC(=O)[C@H](CCC(N)=O)NC(=O)[C@H](CO)NC(=O)[C@@H](N)Cc1c[nH]cn1)[C@@H](C)O)[C@@H](C)O)C(=O)N[C@@H](Cc1ccc(O)cc1)C(=O)N[C@@H](CC(C)C)C(=O)N[C@@H](CC(=O)O)C(=O)N[C@@H](CO)C(=O)N[C@@H](CCC(=O)O)C(=O)N[C@@H](CCCNC(=N)N)C(=O)N[C@@H](C)C(=O)N[C@@H](CCC(N)=O)C(=O)N[C@@H](CC(=O)O)C(=O)N[C@@H](Cc1ccccc1)C(=O)N[C@H](C(=O)N[C@@H](CCC(N)=O)C(=O)N[C@@H](Cc1c[nH]c2ccccc12)C(=O)N[C@@H](CC(C)C)C(=O)N[C@H](C(=O)N[C@@H](C)C(=O)NCC(=O)NCC(N)=O)C(C)C)C(C)C)C(=O)O

For the first assay, the target named is T1, human glucose-dependent insulinotropic peptide (gastric inhibitory polypeptide) receptor (human). The assay can be described thus: cell-based or functional assay.
Molecule B1 yielded a cAMP EC50 (assay 1) of 582 nM.

Turning to B2, the cAMP EC50 (assay 1) turned out to be 19.6 nM.

B3 came in with a cAMP EC50 (assay 1) of 123 nM.

Consider B4, for which the cAMP EC50 (assay 1) was 117 nM.

Regarding B5, the cAMP EC50 (assay 1) is 545 nM.

With B6, the cAMP EC50 (assay 1) amounted to 14.9 nM.

On to HXQGTFTSDYSKYLDSKRAQDFVQWLVAGG (Aib at 2 (written X); K(gE-palm) at 17; C-terminal amide) [g384], for which the cAMP EC50 (assay 1) worked out at 17 nM.

The target in another assay is human glucagon receptor (human, UniProt P47871 26-477). Kind of assay: cell-based or functional assay.
human glucagon receptor, sequence (P47871 26-477): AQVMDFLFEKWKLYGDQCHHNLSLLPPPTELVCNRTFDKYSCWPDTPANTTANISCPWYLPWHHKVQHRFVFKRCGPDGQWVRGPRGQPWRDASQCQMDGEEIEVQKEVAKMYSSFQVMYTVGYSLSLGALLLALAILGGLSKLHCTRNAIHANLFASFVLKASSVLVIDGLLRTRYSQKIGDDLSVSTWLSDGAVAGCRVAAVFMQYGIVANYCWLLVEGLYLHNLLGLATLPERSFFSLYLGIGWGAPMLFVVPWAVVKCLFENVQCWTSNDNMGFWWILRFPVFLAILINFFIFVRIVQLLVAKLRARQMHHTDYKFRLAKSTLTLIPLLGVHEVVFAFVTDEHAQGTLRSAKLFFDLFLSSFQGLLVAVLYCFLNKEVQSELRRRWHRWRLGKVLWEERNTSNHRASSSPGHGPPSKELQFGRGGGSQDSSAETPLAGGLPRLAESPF
The molecule B2 showed a cAMP EC50 (assay 1) of 0.00177 nM.

As to B7, the cAMP EC50 (assay 1) worked out at 1.49 nM.

B3 displayed a cAMP EC50 (assay 1) of 4.52 nM.

Consider B4, for which the cAMP EC50 (assay 1) was found to be 0.189 nM.

Take B5: the cAMP EC50 (assay 1) came to 1.93 nM.

Regarding B6, the cAMP EC50 (assay 1) was determined as 0.008 nM.

Turning to HXQGTFTSDYSKYLDSKRAQDFVQWLVAGG (Aib at 2 (written X); K(gE-palm) at 17; C-terminal amide) [g384], the cAMP EC50 (assay 1) amounted to 0.0429 nM.

The target in another assay is human GLP-1 receptor (human, UniProt P43220 24-463). The assay can be described thus: cell-based or functional assay.
human GLP-1 receptor, sequence (P43220 24-463): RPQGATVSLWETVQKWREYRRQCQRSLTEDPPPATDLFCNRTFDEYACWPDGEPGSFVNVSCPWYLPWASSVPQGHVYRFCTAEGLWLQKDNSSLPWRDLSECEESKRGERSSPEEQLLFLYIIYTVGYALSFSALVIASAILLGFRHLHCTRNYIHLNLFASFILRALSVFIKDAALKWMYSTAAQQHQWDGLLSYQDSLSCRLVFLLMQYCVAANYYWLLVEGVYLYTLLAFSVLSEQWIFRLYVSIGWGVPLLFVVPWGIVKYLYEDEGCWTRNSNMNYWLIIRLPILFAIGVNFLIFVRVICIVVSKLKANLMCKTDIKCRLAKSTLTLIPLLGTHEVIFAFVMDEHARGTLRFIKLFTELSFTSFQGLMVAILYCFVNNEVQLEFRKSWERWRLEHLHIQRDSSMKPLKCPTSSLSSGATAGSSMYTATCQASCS
The molecule B1 had a cAMP EC50 (assay 1) of 0.0733 nM.

In the case of B2, the cAMP EC50 (assay 1) was determined as 0.0366 nM.

B7 displayed a cAMP EC50 (assay 1) of 3.35 nM.

With B3, the cAMP EC50 (assay 1) came to 0.106 nM.

B4 registered a cAMP EC50 (assay 1) of 0.135 nM.

For B5, the cAMP EC50 (assay 1) amounted to 0.0908 nM.

Molecule B6 gave a cAMP EC50 (assay 1) of 0.0203 nM.

In turn, HXQGTFTSDYSKYLDSKRAQDFVQWLVAGG (Aib at 2 (written X); K(gE-palm) at 17; C-terminal amide) [g384] gave a cAMP EC50 (assay 1) of 0.0272 nM.
